# Test results as given in patent US20260250420A1 (SICHUAN KELUN BIOTECH BIOPHARMACEUTICAL, published 2026).
# Residue numbers refer to the chain shown, from its start.
# T1: human PTK7 on cells (tumor cells endogenously expressing PTK7); CHO-hPTK7, CHO-S-hPTK7 and 293T-hPTK7 … (human, UniProt Q13308 31-1070)
# T1 construct: whole, on cells; The cell line of each value is named under assay; also called H1299; H358
# T1 sequence (looked up): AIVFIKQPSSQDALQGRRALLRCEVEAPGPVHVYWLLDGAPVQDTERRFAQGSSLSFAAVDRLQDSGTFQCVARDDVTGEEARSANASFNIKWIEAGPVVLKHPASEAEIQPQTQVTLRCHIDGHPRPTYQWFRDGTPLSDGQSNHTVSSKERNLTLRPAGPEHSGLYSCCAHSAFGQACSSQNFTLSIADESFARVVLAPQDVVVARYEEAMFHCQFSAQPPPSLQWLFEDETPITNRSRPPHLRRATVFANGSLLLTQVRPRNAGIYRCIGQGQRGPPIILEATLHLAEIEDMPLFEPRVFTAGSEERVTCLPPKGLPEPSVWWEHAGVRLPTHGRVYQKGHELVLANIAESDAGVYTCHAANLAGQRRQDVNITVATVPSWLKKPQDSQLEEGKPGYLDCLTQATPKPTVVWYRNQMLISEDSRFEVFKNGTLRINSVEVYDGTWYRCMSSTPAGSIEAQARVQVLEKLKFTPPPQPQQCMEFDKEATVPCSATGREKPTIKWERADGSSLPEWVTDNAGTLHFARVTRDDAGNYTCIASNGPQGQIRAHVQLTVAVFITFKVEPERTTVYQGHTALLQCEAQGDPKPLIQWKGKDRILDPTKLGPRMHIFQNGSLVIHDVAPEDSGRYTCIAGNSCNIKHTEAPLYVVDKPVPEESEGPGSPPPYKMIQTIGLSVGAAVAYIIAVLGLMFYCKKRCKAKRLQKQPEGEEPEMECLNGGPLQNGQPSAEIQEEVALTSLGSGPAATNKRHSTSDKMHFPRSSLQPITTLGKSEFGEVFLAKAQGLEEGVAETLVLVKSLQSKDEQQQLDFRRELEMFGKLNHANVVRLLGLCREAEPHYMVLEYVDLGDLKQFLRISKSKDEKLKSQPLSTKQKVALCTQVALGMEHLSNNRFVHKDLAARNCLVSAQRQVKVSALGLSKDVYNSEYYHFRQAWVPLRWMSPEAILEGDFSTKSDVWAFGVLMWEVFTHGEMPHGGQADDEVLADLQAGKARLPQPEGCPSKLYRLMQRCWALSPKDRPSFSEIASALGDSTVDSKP
# T2: human PTK7 protein (extracellular sequence of human PTK7 with C-terminal 6×His tag) (human, UniProt Q13308 31-704)
# T2 construct: extracellular domain; Expressed transiently in HEK293 cells; also called human PTK7-His; human PTK7-His protein
# T2 sequence: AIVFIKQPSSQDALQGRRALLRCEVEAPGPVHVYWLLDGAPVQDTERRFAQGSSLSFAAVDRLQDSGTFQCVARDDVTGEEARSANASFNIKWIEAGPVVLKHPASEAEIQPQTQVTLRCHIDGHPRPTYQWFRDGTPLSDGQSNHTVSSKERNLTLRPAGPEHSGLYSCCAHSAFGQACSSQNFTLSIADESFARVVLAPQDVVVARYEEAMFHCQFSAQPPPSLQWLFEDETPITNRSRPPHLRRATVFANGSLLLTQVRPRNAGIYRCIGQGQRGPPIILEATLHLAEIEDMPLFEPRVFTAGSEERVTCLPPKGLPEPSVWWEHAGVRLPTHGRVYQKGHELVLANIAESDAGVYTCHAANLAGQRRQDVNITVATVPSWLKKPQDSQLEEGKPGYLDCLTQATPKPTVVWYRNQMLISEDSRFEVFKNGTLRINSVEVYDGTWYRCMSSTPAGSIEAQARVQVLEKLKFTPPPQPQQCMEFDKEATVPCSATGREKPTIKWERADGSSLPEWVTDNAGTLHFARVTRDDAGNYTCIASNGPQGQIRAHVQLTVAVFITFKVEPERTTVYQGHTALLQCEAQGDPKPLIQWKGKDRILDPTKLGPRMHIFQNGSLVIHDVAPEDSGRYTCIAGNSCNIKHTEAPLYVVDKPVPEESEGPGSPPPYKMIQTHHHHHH
# T3: monkey PTK7 protein (extracellular sequence of monkey PTK7 with C-terminal 6×His tag) (monkey)
# T3 chain: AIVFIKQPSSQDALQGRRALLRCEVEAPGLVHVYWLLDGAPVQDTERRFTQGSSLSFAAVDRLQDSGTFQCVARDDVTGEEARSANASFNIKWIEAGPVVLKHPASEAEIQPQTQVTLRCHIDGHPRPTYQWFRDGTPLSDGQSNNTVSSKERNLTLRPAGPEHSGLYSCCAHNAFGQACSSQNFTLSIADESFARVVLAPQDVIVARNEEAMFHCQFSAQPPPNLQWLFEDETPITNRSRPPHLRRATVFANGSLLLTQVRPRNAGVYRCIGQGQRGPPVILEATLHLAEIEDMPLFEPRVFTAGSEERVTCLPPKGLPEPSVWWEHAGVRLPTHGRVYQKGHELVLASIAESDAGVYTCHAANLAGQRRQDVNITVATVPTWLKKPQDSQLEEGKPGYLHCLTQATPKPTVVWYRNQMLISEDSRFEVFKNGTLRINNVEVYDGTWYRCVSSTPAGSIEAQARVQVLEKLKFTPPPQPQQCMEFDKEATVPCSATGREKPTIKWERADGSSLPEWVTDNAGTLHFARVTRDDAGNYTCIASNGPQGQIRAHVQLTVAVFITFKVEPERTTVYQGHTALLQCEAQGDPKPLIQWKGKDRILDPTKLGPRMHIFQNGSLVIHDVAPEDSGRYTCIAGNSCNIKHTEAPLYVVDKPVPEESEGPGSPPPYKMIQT
# B1: 57F4 (anti-human PTK7 murine antibody) (antibody, V domains shown)
# VH: EVQLVESGGGLVKPGGSRKLSCAASGFTFSDYGMHWVRQAPEKGLEWVAYISSGSSALYYADTVKGRFTISRDNVKNTLFLQMTSLRSEDTAMYYCARRSYYSYFAYWGQGTLVTVSA
# VL: QIVLTQSPALMAASPGEKVTITCRVSSSISSSTLHWYQQKSETSPKPWIYGTSNLASGVPVRFSGSGSGTSYSLTISSMEAEDAATYYCQQWSSFPFTFGSGTKLEIK
# notes: Murine antibody purified from hybridoma supernatant on Protein A
# B2: 101A6 (anti-human PTK7 murine antibody) (antibody, V domains shown)
# VH: EVKLVESGGGLVQPGGSLSLSCAASGFTFTDYYLSWVRQPPGKALEWLALIRNKANGYTTEYSASVKGRFTISRDSSQSILYLQMDALRAEDSATYYCARDTLAAYWGQGTSVTVSS
# VL: DIVMTQSHKFMSTSVGDRVSFTCKASQDVGSAVIWYQQKPGQSPKLLIYWASTRHTGVPDRFTGSGSGTDFTLTISNVQSEDLADYFCQQYSSYPLTFGAGTKLEIK
# notes: as for B1
# B3: 8H3 (anti-human PTK7 murine antibody) (antibody, V domains shown)
# VH: B2 VH with L34M, S76N, D86N, T102S, L103F, A104E, A105V, S112L, S117A
# VL: B2 VL with M4L, S20N, F21I, S31T, I34A, S76R, Y91F, Y94F, L96F, A100G
# notes: as for B1
# B4: 4B12 (anti-human PTK7 murine antibody) (antibody, V domains shown)
# VH: QVTLKESGPGILKPAQTLSLTCSFSGFSLSTSGMGVGWIRQPSGKGLEWLAHIWWDDDKHYNPSLKSRLTISKDASRNQVFLRISSVDTADTATYYCVRSNYGYDWFAYWGQGTLVTVSA
# VL: DIKMTQSPSSMYVSLGERVTITCKASQDINTYLGWFQQKPGKSPKTLIYRANRLVDGVPSRFSGSGSGQDYSLTISSLEYEDMEIYYCLQYDEFPLTFGAGTKLEIK
# notes: as for B1
# B5: 4E12 (anti-human PTK7 murine antibody) (antibody, V domains shown)
# VH: QVQLQQSGAELMRPGVSVKISCKGSGYTFTDYAMHWVKQNHAKSLEWIGVISTYYGNVSYNQKFKGKATMTVDKSSSTAYMELARLTSEDSAIYYCARGFAYWGQGTLVTVSA
# VL: DIVITQDELSNLVTSGESVSISCRSSKSLQKKDGKTYLNWFLQRPGQSPQLLIYLMSTRASGVSDRFSGSGSGTDFTLEISRVKAEDVGVYYCQQLVEYPFTFGSGTKLEIK
# notes: as for B1
# B6: 19C2 (anti-human PTK7 murine antibody) (antibody, V domains shown)
# VH: QVTLKESGPGILKPSQTLSLTCSFSGFSLTTSGMGINWIRQPSGKGLEWLALIWWDDDKYYNPSLKNRLTVSKDPSRNQVFLTITSVDTTDSATYYCARSLITTAPSDYWGQGTSVTVSS
# VL: DIVMTQSQKFMSTSVGDRVSITCKASQNVGTAITWYQQRPGQSPQLLIYSASNRYTGVPDRFTGSGSGTDFTLTISNLQSEDLADYFCLQYSDYPLTFGAGTNLELK
# notes: as for B1
# B7: 64A10-CH (anti-human PTK7 chimeric antibody of 64A10) (antibody, human IgG1, kappa, V domains shown)
# VH: QVQLKESGPVLVAPSQSLSITCTVSGFSLTSYGVYWVRQPPGKGPEWLGVIWTSGNTNYNSALMSRLSISKDNSKSQVFLKMNSLQTDDTAMYYCVKHDGGNYVGVMNYWGQGTSVTVSS
# VL: DIQMTQSPATLSVTPGDRVSLSCRASQSISDYLHWYQQKSQESPRLLIKYASQSISGIPSRFSGSGSGSDFTLSINSVEPEDVGVYYCQNGHSFPPTFGGGTKLEIKR
# notes: The label '-CH' is not defined in words
# B8: 64A10 (anti-human PTK7 murine antibody) (antibody, V domains shown)
# VH: B7 VH
# VL: DIQMTQSPATLSVTPGDRVSLSCRASQSISDYLHWYQQKSQESPRLLIKYASQSISGIPSRFSGSGSGSDFTLSINSVEPEDVGVYYCQNGHSFPPTFGGGTKLEIK
# notes: as for B1
# B9: 101A6-CH (anti-human PTK7 chimeric antibody of 101A6) (antibody, human IgG1, kappa, V domains shown)
# VH: B2 VH
# VL: DIVMTQSHKFMSTSVGDRVSFTCKASQDVGSAVIWYQQKPGQSPKLLIYWASTRHTGVPDRFTGSGSGTDFTLTISNVQSEDLADYFCQQYSSYPLTFGAGTKLEIKR
# notes: as for B7
# B10: 64A10HZ05 (VH3+VL2) (anti-human PTK7 humanized antibody) (antibody, human IgG1, kappa, V domains shown)
# VH: QVQLQESGPGLVKPSETLSLTCTVSGFSLTSYGVYWVRQPPGKGLEWLGVIWTSGNTNYNPSLKSRLTISKDNSKNQVSLKLSSVTAADTAVYYCVKHDGGNYVGVMNYWGQGTLVTVSS
# VL: DIQMTQSPSSLSASVGDRVTITCRASQSISDYLHWYQQKPGKAPKLLIKYASQSISGVPSRFSGSGSGSDFTLTISSLQPEDFATYYCQNGHSFPPTFGGGTKVEIKR
# notes: Human IgG1 heavy chain constant region and human Kappa light chain constant region
# What was measured:
# [1] = target: T1, human PTK7 on cells (tumor cells …); assay: flow cytometry on H1299 cells endogenously expressing PTK7
# [2] = target: T2, human PTK7 protein (extracellular …); assay: ELISA, coated human PTK7 protein 1 µg/ml
# Procedure: (§1) Original data was imported into software for nonlinear curve fitting, and EC₅₀ of binding of each antibody to human PTK7 and monkey PTK7 was calculated, respectively. As shown in Table 1 and FIGS. 1A-1B, the screened antibodies could be bound to the human and monkey PTK7 proteins with affinity higher than that of the control antibody Hu24.
# [3] = target: T3, monkey PTK7 protein (extracellular …); assay: ELISA, coated monkey PTK7 protein 1 µg/ml
# Procedure: as §1
# [4] = target: T1, human PTK7 on cells (tumor cells …); assay: flow cytometry on H358 cells endogenously expressing PTK7
# [5] = target: T2, human PTK7 protein (extracellular …); assay: ELISA, coated human PTK7-His protein 1 µg/ml
# Procedure: The original data was imported into software for nonlinear curve fitting, and the EC₅₀ of binding of each antibody to the human PTK7 was calculated, respectively.
# [6] = target: T1, human PTK7 on cells (tumor cells …); assay: flow cytometry on H1299 cells
# Source text: (§2) A flow cytometer (Beckman, Cytoflex) was used for detecting the affinity of the anti-human PTK7 chimeric and humanized antibodies with human non-small cell lung cancer cells H1299, human lung adenocarcinoma cells H1975, human breast cancer cells T47D, human ovarian cancer cells OVCAR-3 (all purchased from NANJING COBIOER BIOSCIENCES CO., LTD) and CHO-hPTK7 overexpression cells.
# (§3) The adherent cells were digested by using a pancreatin (Gibco) solution; a proper amount of cells were counted and taken, washed twice by using 1×PBS, and re-suspended in a 1% BSA solution; and then the cells were transferred into a 96-well deep plate at a density of 50 μl/well; a candidate antibody was diluted by using 1% BSA, then 50 μl of diluted antibody was added into the deep plate containing the cells, and incubated for 40 min at 4° C.; the cells were washed twice by using PBS, then 50 μl of diluted secondary antibody was added into each well, uniformly mixed, and incubated for 30 min at 4° C.; and the cells were washed twice by using PBS, then re-suspended in 400 μl of PBS, and subjected to examination by flow cytometer.
# [7] = target: T1, human PTK7 on cells (tumor cells …); assay: flow cytometry on OVCAR-3 cells
# Source text: as §2, §3
Binder,EC50 [1] [µg/mL],EC50 [2] [µg/mL],EC50 [3] [µg/mL],EC50 [4] [µg/mL],also measured
B1,0.0875,0.0218,0.0158,,
B2,0.245,0.0131,0.0187,,
B3,0.21,0.0113,0.0168,,
B4,,,,0.0441,
B5,,,,0.035,
B6,,,,0.0583,
B7,,,,,EC50 [5]: 0.0258 µg/mL; EC50 [6]: 0.355 µg/mL
B8,,0.0132,0.00765,,
B9,,,,,EC50 [5]: 0.0316 µg/mL; EC50 [6]: 0.158 µg/mL
B10,,,,,EC50 [7]: 0.0397 µg/mL
